Measurements taken from the supplement of paper PMC12636428.

System: Saccharomyces cerevisiae
Assay: transcriptional activation domain activity (GFP:mCherry ratio, weighted mean of sorted bins, harmonized to initial dataset scale) (arbitrary fluorescence ratio units); higher = stronger transcriptional activation
Settings: beta-estradiol 1 µM; induction time 4 h
Outline: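 For this assay, yeast diploids with a GFP reporter carried barcoded protein tiles at URA3, each fused to an estradiol-inducible synthetic transcription factor. Induction was a 1:5 dilution into SC with 1 uM beta-estradiol for 4 hours at 30 °C, followed by sorting into 8 bins by GFP:mCherry ratio and barcode sequencing. Tiles under 50 reads were dropped, and activation activity was calculated as the read-weighted mean of bin median fluorescence, averaged across barcodes and linearly mapped onto the initial dataset scale.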

| Sequence | transcriptional activation domain activity |
| --- | --- |
| FVLLFSIFQILFSKSPFVLCVWLISLALIATIKTMYSVLITWHLQFLAFPFYS | 54400 |
| FVLLLFTCVHVFVVYLVVIAFFTVNICLLWTIALSFMLWYIFFCNLSCSTWPL | 54300 |
| FVLYFFFFFFLFFFFASGLVFFIRLFFFCAVFSASPYSCCCYYFNCAYPIYVL | 55700 |
| FVNLPYYPHVHLSSFFFFCFSLSIFVLSFRFVHLIPFPSYLLCLSVRLFFGLL | 25600 |
| FVTFVFCPPLLAFAHRFGRKVLKRIILALLAFHLVIVLLSSAIMSPYDELHPK | 34300 |
| FVTLFGLAYFILTILPCLDHSCPYRTPMSSLWWYLWHMSLSSATLCLCWLLRL | 33600 |
| FVVLLYQSIFVLSLWLLPVFFKSHIKSLSYKSQVDTSIHVVSMFQCLLILYLI | 50200 |
| FVWILETLNTGFSAHAIEYFAIYNKGNMMMLWSVPWTISVSNNLLCSTLGLNH | 32200 |
| FVYELWRHGGLGVYSFRLTELLVKVVLEAECKEIMDWWLEKQGYILHDLHRKA | 50300 |
| FVYLILTILPCLDHRCPYRTPMSSIWWYCWHTSLGFFALCARWLLNLLHGILV | 50200 |
| FVYSLCIRYLLAPTPTFQEHGVSPRRSTGIALITLFFIILVIFLLTWMRLIHI | 45100 |
| FWFPNYIFGALSFFSWMSWIAPTNINLANITGSSTGLGLNPFSSFDWNVWTFN | 51400 |
| FWFPNYLFEALTFFSWMTWISPNNLNLEILTGFRNGLGMFNPWPTFDWNVLLF | 51500 |
| FWGLRSLPSSPFICLFLFYCGLVLMHSGLYLGLFLFLLFLSLSVFLFLSHFSV | 30100 |
| FWNLFNLVPGIQAQNLHCRYDYYPWGLSAFCQFLPIANAIGLTGSYTGIIYCC | 33900 |
| FWPWTFWPWIFWTFGLFGLGLFGLGLFGFFGLFGPLDFLDFLDFLALDFLDFL | 37000 |
| FWRYRQNQYAYILSYIVGSETSEERISVMRKNGTYHPAPYQFVYLRVRIANLS | 38700 |
| FWVWMMTSPAFPLKLFIPLFHLTILLIPFTSQFFTPALPITSWLICFFSSKFI | 49200 |
| FYAALYPFKGIFFFIGHPFLYPLARARLIPAFLLSAFVLLNLFFWTYLPQVAF | 34300 |
| FYAMVHWYKIFQSGHSIVRIFLLLIEFLYNLISLVFSWFSLANFYLCYYFLYH | 49600 |
| FYFFFLLSLFSSSSPPLIFLALPLPFSISLTVSNPLAFPVAFFPLFSLSSLLN | 65800 |

| Sequence | transcriptional activation domain activity |
| --- | --- |
| FYFICLFFILYFVFIFMFVFHMFVFYFLCFFLCLIYFLLVYFDICFLSLYLFF | 42600 |
| FYFSWIAQEKYTDAFLLKPLGHYLGTRQLNQENIFIAYYIFVLACHYTFLYVS | 33300 |
| FYGDISLSRRGFLIASMFILRLFRAISYLAFNAILVDMPTRQAILRFFHYFGR | 50200 |
| FYGLYPDNAQTLGSAPKTPTMRLVKAYLKTILSNPESRKIFYFLVLNLSYMMV | 85300 |
| FYGYFNVLKIYLIKYRSSEVFFFFFDFLMYTENEWFITNLFFLLSFILHLGFF | 60200 |
| FYICAILGFKIGIIFAFLRIAVDRTYRISIICVAVICSAFYFCFFVAQLNFCT | 62100 |
| FYLSPVMPLFPPLLKLLREYLSDPLYKDFVSAIYLWVRSVELHHMSTLCIALL | 68900 |
| FYMQLCVNIFLASGFIYILYCAWGAIISDVDIEASKHMSEVLVDIALCAKQYN | 22900 |
| FYPIGRRWQWYWGLWVCACALISLFSNIEVDRYYLQSLPITITIFFWYLMCMG | 28200 |
| FYSRVASSTLLFFWLTSLISNGIIIRTNYLLDQHHSRLLLFALLVVQELLCVL | 68600 |
| FYTLIVEEDQSLWLCLKWCFFDMLFMFGIPLLEIPWLEWSNGAAFLLFVLHAG | 63300 |
| FYWIPIFRAVGKYKYSNLLNKFLLDLHLRYPKKLQNAIRSNWLCNPSGKKNKF | 64100 |
| GAAAASGTKPKPTAAGGAAGAAAASGAKPKPTAAGAAGAAAASGAKPKPTGAA | 15300 |
| GAAASPPPNPDGGKPRKRKGPKEKGGEGNAAARRDAGAGAGAGAARSGSAAAA | 27100 |
| GAAASTPAAPQKPAGGLFGGAGLGAASKPADAAASSSSSGLFGAKPAESAPAA | 30900 |
| GAAATPAKPLGFGATSTATTGGLFGNTGAAPAAGGGLFGATATSHQLLVLVAV | 85800 |
| GAAEVDAAAPEGAETIEGAPAATEKQPRPPKKPRTPRPRRPAGEEPAGEPSKN | 29700 |
| GAAHVPSGLSEEKELEQEKKKADRRKGMREKAKEREAKRPVEVAAPEPVAAAP | 23700 |
| GAAPPPPPPPPARGGGAAPPPPPPPPPARGGAVPPPPPPPPPSGGGPPPPPPP | 33000 |
| GAARVQVDFWFFLFVYYGLYNLTALIWITKVFNLYSLNWWPQSLGFPLTVSLI | 61300 |
| GAATTANAGGKRNRMKVNGKYYTRLDCIGRGGSSRVYRVMAENSKFFALKRVT | 35500 |

| Sequence | transcriptional activation domain activity |
| --- | --- |
| GACLQDIAMVGFIDTNSIGCVASSVVLYLSLVFIIGVVAIRFFMAVMFQWFFS | 35600 |
| GAEAGAAVPGKRRNRRGRRGKKKKPGLANGAANGDGVEREDGENGEGEVPKEE | 52100 |
| GAEEGAKEKAGEVAKKRKREVAAAVEDEEGGQPKAEKVRTKKGGGKSKEKKDS | 27400 |
| GAEGAGAPGGAPPQLKKPKKHHKKKHHKKHGHRGGKHKHGKKGKWGKKGKKGL | 15100 |
| GAEYICQYKGGLIGKHFKSFAQIMPYLIYDLVPPSVLDAWTTIGSPVVLLWHT | 46000 |
| GAGAGGKVGGGAGAGAGAGAGAGHLGGGAEGGGKIGAGAGGKVGGEIGAGGKI | 25000 |
| GAGGAAGGAGAGAGTAATGGNAAGGKASATKPAAGAKSSPAAAAAAAGTRLTG | 7150 |
| GAGGAMGAALKHAVRDLAALSTAVSGAWVVEAITSSCSRRSIAVLVSRALAAM | 42000 |
| GAGGGITSNGGGKPAAAAEGAKPASEAPKEASKPEGAKPASESPKPEGEKPAA | 27600 |
| GAGPVGYGPQGAGEGDGESKSDSETMRTATTQPPPKPKQLYFIYVLASHYGLG | 61700 |
| GAGVGGATDGAEGKKGDGGGGKEKEREEGERRKKKKKRNKEGRDGGGGGTGGD | 43300 |
| GAKDLDDAVSIKVNEDGTYDVSVHVADVSFFVKPNTALDRDARKRATSVYLVQ | 48400 |
| GAKEEGGKKEAGGEKKEGSGKEGAKEGGEKGAKEGGEKKEGGEKGEGKEGGEG | 20300 |
| GAKGKGAEKGKSKQAEQGDGEDGGSEAEGGKRKRAARSKAKTKGKAGGAADGG | 23300 |
| GAKVRSWPLTYIYTLYFFMTYFIFYRNLFARLQDPKQVLYLQLGLSMWIVFIY | 35200 |
| GALRLAASQEGIKLGDDVKSNVKMVLGKDAQGGFAVSAEVTVSGNGVTKALVD | 31300 |
| GANADELGHIIVTRRNRFWKIKGIVGGRILSMPELERWTLFVLLMCFRLHIYP | 23900 |
| GANAGGARPSSRTSNKKPTSSASPPNDSNDSNKKKDADAKKHDGKKAERGGGR | 29100 |
| GAPHHNQFLDLNLGLEVYKETGRRVQFLVAAKSMQRKFVGLCCRLIHAIPVVR | 67400 |
| GAQKPFDLTHWNITEYDCQGFDGYHEMSFFVLASHLYYRSLRSIPSLVRLWWI | 75200 |
| GAQTSGPSSSAGSNNNSSSSSSEEDEPATGGSNGTQLKGKPRKTAAKRATSSG | 35300 |

| Sequence | transcriptional activation domain activity |
| --- | --- |
| GARRQARRPRKRESSAADGDDNDADRMDVDREEARGGREQADAGDAEDEDDEE | 40000 |
| GARTGKDKEKEKDKEKDKGARRSSCRSWSRDRGRSRSRSPRRDRERDRERGRG | 31500 |
| GASAFGSAAQLGQKSSPWGSATSAVPSTGGAVFGSSGFGNAAPSAAPAFGKPS | 33200 |
| GASGGTKLAKKAPAAAAPKKVAAPKKEAAPKKEIKEKKPAAAPKKAAVPKKEA | 38800 |
| GASPEESNSGNSRAGASRARKGSKVIDENMVEDALLGLQITHGCLVHHTASVQ | 44800 |
| GASSSAAAAGSSEEAPKKKRGRPPKEKKADESGAETEPAPKRKRGRPPKNPKP | 21200 |
| GASTPVTTGGKRKSDGGAGGSAKKERKTPAAKKDKEEKAPRGKANGAKATAAS | 22000 |
| GASTSAFGTPSALGAKPNPFGTPATGGAFGQPAAAPAFGQPTQPAGAFGQPAQ | 40300 |
| GASVDIHVTYQSSVKEGDEVEIEGIAEKVGGSLAFTKVNIFRVEDGERGRPVA | 36800 |
| GASYVIFCLRYYYKGKRRRLTNRLVAYKRALLLVQFVFTHHKWPSYIVILESY | 46200 |
| GATSTDHQHHHHRIQFHSHKPNRNNIVNNSGISAANTTADLTNNDLNDLISRE | 31400 |
| GATSTPAATGTTGGLFGSGGTTTGGFGSTSTPAAGGFGSTSTGGGLFGAKPAT | 21400 |
| GAVAADVEDEDADDALEEPAKGKKRKSKVEEDESEAEKPAKKGRGRKSTETNG | 42600 |
| GAVARAAHAAAPAGVRAAAPAPAGVHALAPAGAHALVHAPARAGPARALVLAG | 48800 |
| GAVINLSLSLGRRTQVEEAIKLVRYKAHYVSGSIDHGLHRLLVWAYTLLTVRI | 57100 |
| GAVMPILMQFFFIMAWNGICNGMHLYAAYNLRTHVLARLFWSILWPLLSSLCS | 59900 |
| GAVNLSSNERVVFSCRGEVLESKFGRSSKLSPRTFVVTTSKFYIVVQMLVSGQ | 37800 |
| GAYYLVSGLNGFELYEFDDNYHCGCCRDVHYRLFWFLIETISVLHGRWVFLQV | 28800 |
| GCDYVFSMYVLGAGLWLFIFYLPPIVFSIVCLCYLTLIWAVSWVLLWCLIFIL | 53900 |
| GCEPKNQRIFYFHVLILQRSLMARLERHEEGLSTKEWRLVLGDHYWISHWKKV | 51400 |
